Test results reported in US20200230249A1 (UREKA SARL, published 2020).
Numbered stars: 1 amine (or outer) side, 2 acyl side, 3 side chain; on linkers, the order of the positions; unused ones are H or OH. Square brackets hold non-standard residues; d marks the D form. Ends that are not written are not given here. A^u = urea/ureido (oligourea) residue with alanine side chain, C[C@@H](CNC(=O)[*:2])N[*:1]; Au = A^u, ureido (oligourea) alanine residue, C[C@@H](CNC(=O)[*:2])N[*:1]; D^uα = urea/ureido residue with aspartic acid side chain; E^u = urea/ureido residue with glutamic acid side chain; Y^u = urea/ureido residue with tyrosine side chain

B1: GG2[A^UA^UA^U]^23-26 (peptide)
peptide: HGEGTFTSDVSSYLEGQAAKEF[A^u][A^u][A^u]VKGRG-NH2
modifications: N-terminus assumed
SMILES: CC(C)C[C@H](NC(=O)[C@H](Cc1ccc(O)cc1)NC(=O)[C@H](CO)NC(=O)[C@H](CO)NC(=O)[C@@H](NC(=O)[C@H](CC(=O)O)NC(=O)[C@H](CO)NC(=O)[C@@H](NC(=O)[C@H](Cc1ccccc1)NC(=O)[C@@H](NC(=O)CNC(=O)[C@H](CCC(=O)O)NC(=O)CNC(=O)[C@@H](N)Cc1c[nH]cn1)[C@@H](C)O)[C@@H](C)O)C(C)C)C(=O)N[C@@H](CCC(=O)O)C(=O)NCC(=O)N[C@@H](CCC(N)=O)C(=O)N[C@@H](C)C(=O)N[C@@H](C)C(=O)N[C@@H](CCCCN)C(=O)N[C@@H](CCC(=O)O)C(=O)N[C@@H](Cc1ccccc1)C(=O)N[C@@H](C)CNC(=O)N[C@@H](C)CNC(=O)N[C@@H](C)CNC(=O)N[C@H](C(=O)N[C@@H](CCCCN)C(=O)NCC(=O)N[C@@H](CCCNC(=N)N)C(=O)NCC(N)=O)C(C)C
B2: GG2[F^UαI^UA^U]^22-25 (peptide)
peptide: HGEGTFTSDVSSYLEGQAAKEXXXLVKGRG
modifications: ureido (oligourea) residues F^uα I^u A^u at positions 22-24 of the hybrid, replacing residues 22-25 of GLP-1-G2; C-terminal amide
B3: GG2[A^UA^UA^U]^17-20 (peptide)
peptide: HGEGTFTSDVSSYLEG[A^u][A^u][A^u]EFIAWLVKGRG-NH2
modifications: N-terminus assumed
SMILES: CC[C@H](C)[C@H](NC(=O)[C@H](Cc1ccccc1)NC(=O)[C@H](CCC(=O)O)NC(=O)NC[C@H](C)NC(=O)NC[C@H](C)NC(=O)NC[C@H](C)NC(=O)CNC(=O)[C@H](CCC(=O)O)NC(=O)[C@H](CC(C)C)NC(=O)[C@H](Cc1ccc(O)cc1)NC(=O)[C@H](CO)NC(=O)[C@H](CO)NC(=O)[C@@H](NC(=O)[C@H](CC(=O)O)NC(=O)[C@H](CO)NC(=O)[C@@H](NC(=O)[C@H](Cc1ccccc1)NC(=O)[C@@H](NC(=O)CNC(=O)[C@H](CCC(=O)O)NC(=O)CNC(=O)[C@@H](N)Cc1c[nH]cn1)[C@@H](C)O)[C@@H](C)O)C(C)C)C(=O)N[C@@H](C)C(=O)N[C@@H](Cc1c[nH]c2ccccc12)C(=O)N[C@@H](CC(C)C)C(=O)N[C@H](C(=O)N[C@@H](CCCCN)C(=O)NCC(=O)N[C@@H](CCCNC(=N)N)C(=O)NCC(N)=O)C(C)C
B4: GG2[A^UA^UA^U]^24-27 (peptide)
peptide: HGEGTFTSDVSSYLEGQAAKEFIXXXKGRG
modifications: ureido (oligourea) residues A^u A^u A^u at positions 24-26 of the hybrid, replacing residues 24-27 of GLP-1-G2; C-terminal amide
B5: GG2[A^UA^UA^U]^19-22 (peptide)
peptide: HGEGTFTSDVSSYLEGQA[A^u][A^u][A^u]IAWLVKGRG-NH2
modifications: N-terminus assumed
SMILES: CC[C@H](C)[C@H](NC(=O)NC[C@H](C)NC(=O)NC[C@H](C)NC(=O)NC[C@H](C)NC(=O)[C@H](C)NC(=O)[C@H](CCC(N)=O)NC(=O)CNC(=O)[C@H](CCC(=O)O)NC(=O)[C@H](CC(C)C)NC(=O)[C@H](Cc1ccc(O)cc1)NC(=O)[C@H](CO)NC(=O)[C@H](CO)NC(=O)[C@@H](NC(=O)[C@H](CC(=O)O)NC(=O)[C@H](CO)NC(=O)[C@@H](NC(=O)[C@H](Cc1ccccc1)NC(=O)[C@@H](NC(=O)CNC(=O)[C@H](CCC(=O)O)NC(=O)CNC(=O)[C@@H](N)Cc1c[nH]cn1)[C@@H](C)O)[C@@H](C)O)C(C)C)C(=O)N[C@@H](C)C(=O)N[C@@H](Cc1c[nH]c2ccccc12)C(=O)N[C@@H](CC(C)C)C(=O)N[C@H](C(=O)N[C@@H](CCCCN)C(=O)NCC(=O)N[C@@H](CCCNC(=N)N)C(=O)NCC(N)=O)C(C)C

These binders were tested against T1, mouse GLP-1 receptor endogenously expressed in βTC6 cells (mouse, UniProt O35659 22-463) (assay: cell-based or functional assay).
T1 sequence (looked up): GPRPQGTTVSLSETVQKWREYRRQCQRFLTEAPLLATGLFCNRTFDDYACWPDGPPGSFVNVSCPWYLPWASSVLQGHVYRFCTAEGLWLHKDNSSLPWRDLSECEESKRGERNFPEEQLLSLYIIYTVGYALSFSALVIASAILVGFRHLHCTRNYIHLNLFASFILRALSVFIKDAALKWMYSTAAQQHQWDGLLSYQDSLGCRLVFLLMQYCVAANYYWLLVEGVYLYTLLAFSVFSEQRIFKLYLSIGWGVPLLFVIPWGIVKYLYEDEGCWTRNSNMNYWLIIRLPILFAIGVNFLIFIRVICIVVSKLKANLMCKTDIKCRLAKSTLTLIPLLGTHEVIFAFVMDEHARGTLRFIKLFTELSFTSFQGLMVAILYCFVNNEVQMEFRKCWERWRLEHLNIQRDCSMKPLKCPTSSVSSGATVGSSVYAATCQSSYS
In the case of HGEGTFTS[D^uα][A^u][A^u]YLEGQAAKEFIAWLVKGRG-NH2 [GG2[D^UαA^UA^U]^9-12], the “EC50 (nM), cAMP production functional assay” value (“EC50 (nM)” for short) is reported as 13 nM and the “Potency (%) compared to GLP-1-G^2, cAMP production” value (from here on “Potency (%)”) is reported as 2%.
B1 was tested, and the “EC50 (nM)” value was 3930 nM and the “Potency (%)” value was 0.01%.
With H-HGEGTFTSDVSSYL[Au][Au][Au]AKEFIAWLVKGRG-NH2 (also: oligourea (urea) backbone at A^u units) [GG2[A^UA^UA^U]^15-18] the “EC50 (nM)” value was 123 nM and the “Potency (%)” value was 0.2%.
For HGEGTFTSDVSS[Au][Au][Au]QAAKEFIAWLVKGRG-NH2 (also: oligourea (urea) backbone at A^u units) [GG2[A^UA^UA^U]^13-16], the “EC50 (nM)” value was greater than 10000 nM and the “Potency (%)” value was less than 0.01%.
With H-HGEGTFTSDVSSYLE[Au][Au][Au]KEFIAWLVKGRG-NH2 (also: oligourea (urea) backbone at A^u units) [GG2[A^UA^UA^U]^16-19] the “EC50 (nM)” value was 240 nM and the “Potency (%)” value was 0.1%.
For HGEGTFTSDVSSY[Y^u][E^u][A^u]AAKEFIAWLVKGRG-NH2 [GG2[Y^UE^UA^U]^14-17], the “EC50 (nM)” value was 0.18 nM and the “Potency (%)” value was 135%.
H-HGEGTFTSDVSSYLEGQAAKEFIAWLVKGRG-NH2 [GLP-1-G^2 (GG2)] was tested, and the “EC50 (nM)” value was 0.24 nM and the “Potency (%)” value was 100%.
HGEGTFTSDVSSYLEGQ[A^u][A^u][A^u]FIAWLVKGRG-NH2 [GG2[A^UA^UA^U]^18-21] was tested, and the “EC50 (nM)” value was 4.1 nM and the “Potency (%)” value was 6%.
B2 was tested, and the “EC50 (nM)” value was 62 nM and the “Potency (%)” value was 0.4%.
With B3 the “EC50 (nM)” value was 1600 nM and the “Potency (%)” value was 0.01%.
With HGEGTFTSDV[A^u][Y^u][A^u]EGQAAKEFIAWLVKGRG-NH2 [GG2[A^UY^UA^U]^11-14] the “EC50 (nM)” value was 1.6 nM and the “Potency (%)” value was 15%.
In the case of HGEGTFTSDV[Au][Au][Au]EGQAAKEFIAWLVKGRG-NH2 (also: oligourea (urea) backbone at A^u units) [GG2[A^UA^UA^U]^11-14], the “EC50 (nM)” value is reported as 97 nM and the “Potency (%)” value is reported as 0.2%.
B4 was tested, and the “EC50 (nM)” value was greater than 10000 nM and the “Potency (%)” value was less than 0.01%.
With HGEGTFTSDVSSYL[E^u][A^u][A^u]AKEFIAWLVKGRG-NH2 [GG2[E^UA^UA^U]^15-18] the “EC50 (nM)” value was 1.9 nM and the “Potency (%)” value was 13%.
With H-HGEGTFTSDVS[Au][Au][Au]GQAAKEFIAWLVKGRG-NH2 (also: oligourea (urea) backbone at A^u units) [GG2[A^UA^UA^U]^12-15] the “EC50 (nM)” value was greater than 10000 nM and the “Potency (%)” value was less than 0.01%.
H-HGEGTFTSDVSSY[Au][Au][Au]AAKEFIAWLVKGRG-NH2 (also: oligourea (urea) backbone at A^u units) [GG2[A^UA^UA^U]^14-17] was tested, and the “EC50 (nM)” value was 353 nM and the “Potency (%)” value was 0.07%.
With B5 the “EC50 (nM)” value was greater than 10000 nM and the “Potency (%)” value was less than 0.01%.
For HGEGTFTSDVSSY[Y^u][E^u][A^u][A^u][A^u][A^u]FIAWLVKGRG-NH2 [GG2[Y^uE^uA^uA^uA^uA^u]^14-21], the “EC50 (nM)” value was 3.4 nM and the “Potency (%)” value was 7%.
For H-HGEGTFTSD[Au][Au][Au]LEGQAAKEFIAWLVKGRG-NH2 (also: oligourea (urea) backbone at A^u units) [GG2[A^UA^UA^U]^10-13], the “EC50 (nM)” value was 650 nM and the “Potency (%)” value was 0.04%.
